Assay results taken from patent publication US20200017583A1 (Daiichi Sankyo, published 2020).
Blank lines part the entries; values can stand above or below the binder they belong to. Where no end group is shown, it is not given here. The star is where a group is joined. Biotin = O=C1N[C@H]2[C@H](CS[C@H]2CCCCC(=O)*)N1

Assays:
[1] = target: T1, GPR20 fragment peptide GLEVPLFHLFARLDEELHGT (human, N-terminally biotinylated and C-terminally amidated); test: BLI (Octet RED384), peptide on streptavidin sensor, antibody as analyte, 1:1 model
T1 construct: Captured on streptavidin sensor chips; also called peptide consisting of amino acid positions 29 to 48 of GPR20
T1 peptide: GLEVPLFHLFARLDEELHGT
Description: (§1) For the detailed analysis of the epitope, a peptide consisting of amino acid positions 29 to 48 of GPR20, and peptides in which a terminal amino acid residue was continuously truncated one by one from this peptide, were synthesized, and then N-terminally biotinylated and C-terminally amidated to produce a GPR20 fragment peptide library (Sigma-Aldrich Japan G.K.). […] PBS-T was used as a buffer solution, and the sensor chips used were streptavidin sensor chips (manufactured by Pall ForteBio Corp.). […] Subsequently, the sensor chip was dipped in the buffer solution, and a dissociation phase was monitored for 270 seconds. […] The data was analyzed using 1:1 binding models to calculate association rate constant ka, dissociation rate constant kd and dissociation constant KD (KD=kd/ka).

[2] = target: T2, GPR20 fragment peptide GLEVPLFHLFARLDEE (human, SMILES …); test: as above
T2 construct: Captured on streptavidin sensor chips
T2 peptide: Biotin-GLEVPLFHLFARLDEE-NH2
Description: as §1

[3] = target: T3, GPR20 fragment peptide GLEVPLFHLFARLDE (human, SMILES …); test: as above
T3 construct: Captured on streptavidin sensor chips
T3 peptide: Biotin-GLEVPLFHLFARLDE-NH2
Description: as §1

[4] = target: T4, GPR20 fragment peptide GLEVPLFHLFARLD (human, SMILES …); test: as above
T4 construct: Captured on streptavidin sensor chips
T4 peptide: Biotin-GLEVPLFHLFARLD-NH2
Description: as §1

[5] = target: T5, GPR20 fragment peptide GLEVPLFHLFARL (human, SMILES …); test: as above
T5 construct: Captured on streptavidin sensor chips
T5 peptide: Biotin-GLEVPLFHLFARL-NH2
Description: as §1

[6] = target: T6, GPR20 fragment peptide GLEVPLFHLFAR (human, SMILES …); test: as above
T6 construct: Captured on streptavidin sensor chips
T6 peptide: Biotin-GLEVPLFHLFAR-NH2
Description: as §1

[7] = target: T7, GPR20 fragment peptide GLEVPLFHLFARLDEEL (human, SMILES …); test: as above
T7 construct: Captured on streptavidin sensor chips
T7 peptide: Biotin-GLEVPLFHLFARLDEEL-NH2
Description: as §1

[8] = target: T8, GPR20 fragment peptide LEVPLFHLFARLDEEL (human, SMILES …); test: as above
T8 construct: Captured on streptavidin sensor chips
T8 peptide: Biotin-LEVPLFHLFARLDEEL-NH2
Description: as §1

[9] = target: T9, GPR20 fragment peptide EVPLFHLFARLDEEL (human, SMILES …); test: as above
T9 construct: Captured on streptavidin sensor chips
T9 peptide: Biotin-EVPLFHLFARLDEEL-NH2
Description: as §1

[10] = target: T10, GPR20 fragment peptide VPLFHLFARLDEEL (human, SMILES …); test: as above
T10 construct: Captured on streptavidin sensor chips
T10 peptide: Biotin-VPLFHLFARLDEEL-NH2
Description: as §1

[11] = target: T11, C-terminally biotinylated synthetic peptide 1 consisting of amino acids at positions 1 to 48 from the … (human, C-terminally biotinylated); test: peptide-ELISA, biotinylated peptide on NeutrAvidin plate, antibody at 1 µg/mL, anti-rat IgG-peroxidase, chemiluminescence
T11 construct: Captured on NeutrAvidin plates
T11 peptide: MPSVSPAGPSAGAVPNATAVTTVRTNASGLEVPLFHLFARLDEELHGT
Experimental: NeutrAvidin (Pierce/Thermo Fisher Scientific Inc.) diluted to 1 μg/mL with PBS was added at 100 μL/well to 96-well Maxisorp plate (Nunc), and the plate was left standing overnight at 4° C. The solution was removed, and the plate was washed three times with 300 μL/well of PBS containing 0.05% Tween 20 (hereinafter, referred to as PBST). […] The plate was left standing at room temperature for 1 hour. The solution was removed from the plate, and each well was washed three times with PBST. Then, Blocker Casein in PBS (Thermo Fisher Scientific Inc.) was added at 100 μL/well, and the plate was left standing overnight at room temperature. The solution was removed, and each well was washed three times with PBST. […] The solution was removed, and each well was washed three times with PBST. Then, Anti-Rat IgG-Peroxidase antibody produced in rabbit (Jackson ImmunoResearch Laboratories, Inc.) 500-fold diluted with PBS was added at 100 μL/well, and the plate was left standing at room temperature for 1 hour. The solution was removed, and each well was washed three times with PBST. Then, SuperSignal ELISA Pico Chemiluminescent Substrate was added at 100 μl/well, and the plate was left standing at room temperature for 10 minutes, followed by the measurement of chemiluminescence using a plate reader (SpectraMax M3, Molecular Devices, LLC).

[12] = target: T12, synthetic peptide 2 consisting of amino acid positions 30 to 48 of human GPR20 (human, also: biotinylated, position not given here); test: as above
T12 construct: Captured on NeutrAvidin plates
T12 peptide: LEVPLFHLFARLDEELHGT

[13] = target: T13, human GPR20 protein (human, UniProt Q99678 1-358); test: flow cytometry, hybridoma culture supernatant on 293T cells transiently expressing human GPR20 versus empty-vector 293T cells, anti-rat IgG FITC
T13 construct: membrane fraction on SDS-PAGE for the Western blot; also called hGPR20; G protein-coupled receptor 20
Experimental: The cells were left standing at 4° C. for 1 hour. […] The cells were left standing at 4° C. for 1 hour.

[14] = target: T13, human GPR20 protein; test: immunohistochemistry on paraffin-embedded GIST430 and GIST430/654 preparations, PC-3 as GPR20-negative control, DAB
Experimental: Deparaffinization and antigen retrieval were carried out at 97° C. for 40 minutes with an antigen retrieval solution (Target Retrieval Solution High pH; manufactured by Dako/Agilent Technologies Inc.) using a pretreatment system for Autostainer Link (PT Link; manufactured by Dako/Agilent Technologies Inc.). Subsequent staining procedures were carried out at room temperature using an automatic staining apparatus (Dako Autostainer Link 48; manufactured by Dako/Agilent Technologies Inc.). After washing once with EnVision FLEX WASH BUFFER (manufactured by Dako/Agilent Technologies Inc.), Peroxidase Block 3% H2O2 (manufactured by Dako/Agilent Technologies Inc.) was added to the cells, which were then incubated for 5 minutes and washed once with EnVision FLEX WASH BUFFER. Protein Block serum free (manufactured by Dako/Agilent Technologies Inc.) was added to the cells, which were then incubated for 30 minutes. The solution was removed by air blow. A rat monoclonal anti-GPR20 antibody, a rabbit chimeric anti-GPR20 antibody or a rabbit type anti-GPR20 antibody was diluted into 1.0 μg/mL to 10 μg/mL with REAL Antibody Diluent (manufactured by Dako/Agilent Technologies Inc.) and reacted with the cells for 30 minutes.
DAKO Liquid DAB+Substrate Chromogen System was added to the cells, which were then incubated for a total of 10 minutes and then washed once with EnVision FLEX WASH BUFFER. EnVision FLEX Hematoxylin was added to the cells, which were incubated for 5 minutes and then washed a total of three times with EnVision FLEX WASH BUFFER and ion-exchanged water.

- Kd [1]: < 0.001 nM
- Kd [2]: < 0.001 nM
- Kd [3]: < 0.001 nM
- Kd [4]: < 0.001 nM
- Kd [5]: 1.1 nM
- Kd [6]: 13 nM
- Kd [7]: < 0.001 nM
- Kd [8]: < 0.001 nM
- Kd [9]: 1.1 nM
- Kd [10]: 5.7 nM
- binding result [11]: binds
- binding result [12]: binds
- binding result [13]: binds
B1: rat anti-human GPR20 antibody 04-093 (antibody, rat IgG2b)
heavy: EVQLVESGGGLVQPGRSLKLSCVASGFTFNNYWMTWIRQAPGKGLEWVASITNIDGSSYYPDSVKGRFTISRDNVKSTLYLQMNSLRSEDTATYYCTRGSFDYWGQGVMVTVSSAQTTAPSVYPLAPGCGDTTSSTVTLGCLVKGYFPEPVTVTWNSGALSSDVHTFPAVLQSGLYTLTSSVTSSTWPSQTVTCNVAHPASSTKVDKKVERRNGGIGHKCPTCPTCHKCPVPELLGGPSVFIFPPKPKDILLISQNAKVTCVVVDVSEEEPDVQFSWFVNNVEVHTAQTQPREEQYNSTFRVVSALPIQHQDWMSGKEFKCKVNNKALPSPIEKTISKPKGLVRKPQVYVMGPPTEQLTEQTVSLTCLTSGFLPNDIGVEWTSNGHIEKNYKNTEPVMDSDGSFFMYSKLNVERSRWDSRAPFVCSVVHEGLHNHHVEKSISRPPGK
light: DIQMTQSPSVLSASVGDRVTLNCKASQNVNKYLNWFQQKLGEPPKLLIYNTNNLQTGIPSRFSGSGSGTDYTLTISSLQPEDVATYFCFQHVSWLTFGSGTKLEIKRADAAPTVSIFPPSTEQLATGGASVVCLMNNFYPRDISVKWKIDGTERRDGVLDSVTDQDSKDSTYSMSSTLSLTKADYESHNLYTCEVVHKTSSSPVVKSFNRNEC
notes: Rat IgG2b, kappa, from a hybridoma; the full-length chains were made by linking them to known rat constant regions (IMGT IGHG2B*01, IGKC*01); also called 04-093 antibody; rat anti-GPR20 antibody 04-093

- binding result [14]: binds
B2: rabbit type anti-GPR20 antibody OcH1L1 (antibody, V domains shown)
VH: EVQLKESGGGLVKPGGSLKLCCKASGFTFNNYWMTWIRQAPGKGLEWIASITNIDGSSYYASWVNGRFTLSRDNAQSTVCLQLNSLTAADTATYFCTRGSFDYWGQGTLVTVSS
VL: DIVMTQTPSPVSAAVGGTVTINCKASQNVNKYLNWFQQKPGQPPKLLIYNTNNLQTGVPSRFSGSGSGTDYTLTISGVQCDDAATYYCFQHVSWLTFGGGTEVVVKG
notes: CDR-grafted rabbit type form of 04-093; also called OcH01/OcL01

- binding result [14]: binds
B3: rabbit type anti-GPR20 antibody OcH2L1 (antibody, V domains shown)
VH: EVQLKESGGGLVKPGGSLKLSCKASGFTFNNYWMTWIRQAPGKGLEWIASITNIDGSSYYPDSVKGRFTISRDNAQSTLYLQLNSLTAADTATYFCTRGSFDYWGQGTLVTVSS
VL: DIVMTQTPSPVSAAVGGTVTINCKASQNVNKYLNWFQQKPGQPPKLLIYNTNNLQTGVPSRFSGSGSGTDYTLTISGVQCDDAATYYCFQHVSWLTFGGGTEVVVKG
notes: CDR-grafted rabbit type form of 04-093; also called OcH02/OcL01

- binding result [14]: binds
B4: rabbit chimeric anti-GPR20 antibody OcChimera (antibody)
heavy: EVQLVESGGGLVQPGRSLKLSCVASGFTFNNYWMTWIRQAPGKGLEWVASITNIDGSSYYPDSVKGRFTISRDNVKSTLYLQMNSLRSEDTATYYCTRGSFDYWGQGVMVTVSSGQPKAPSVFPLAPCCGDTPSSTVTLGCLVKGYLPEPVTVTWNSGTLTNGVRTFPSVRQSSGLYSLSSVVSVTSSSQPVTCNVAHPATNTKVDKTVAPSTCSKPTCPPPELLGGPSVFIFPPKPKDTLMISRTPEVTCVVVDVSQDDPEVQFTWYINNEQVRTARPPLREQQFNSTIRVVSTLPITHQDWLRGKEFKCKVHNKALPAPIEKTISKARGQPLEPKVYTMGPPREELSSRSVSLTCMINGFYPSDISVEWEKNGKAEDNYKTTPAVLDSDGSYFLYNKLSVPTSEWQRGDVFTCSVMHEALHNHYTQKSISRSPGK
light: DIQMTQSPSVLSASVGDRVTLNCKASQNVNKYLNWFQQKLGEPPKLLIYNTNNLQTGIPSRFSGSGSGTDYTLTISSLQPEDVATYFCFQHVSWLTFGSGTKLEIKRDPVAPSVLLFPPSKEELTTGTATIVCVANKFYPSDITVTWKVDGTTQQSGIENSKTPQSPEDNTYSLSSTLSLTSAQYNSHSVYTCEVVQGSASPIVQSFNRGDC
notes: 04-093 variable regions on rabbit IGHG*02 and IGKC2*01 constant regions; also called rabbit chimeric antibody; OcHch/OcLch
